Measured values: US6613878 (CYCLACEL, dated 2003)
Ends that are not written are not given here. * marks the point of attachment. Biotin = O=C1N[C@H]2[C@H](CS[C@H]2CCCCC(=O)*)N1

B1: PCNA from Drosophila melanogaster (other, UniProt P17917 1-260, looked up)
chain: MFEARLGQATILKKILDAIKDLLNEATFDCSDSGIQLQAMDNSHVSLVSLTLRSDGFDKFRCDRNLSMGMNLGSMAKILKCANNEDNVTMKAQDNADTVTIMFESANQEKVSDYEMKLMNLDQEHLGIPETDFSCVVRMPAMEFARICRDLAQFSESVVICCTKEGVKFSASGDVGTANIKLAQTGSVDKEEEAVIIEMQEPVTLTFACRYLNAFTKATPLSTQVQLSMCADVPLVVEYAIKDLGHIRYYLAPKIEDNET
notes: Two hybrid construct; the Gal4 fusion is not described for this protein; also called D. melanogaster PCNA
B2: PCNA from Schizosaccharomyces pombe (other, UniProt Q03392 1-260, looked up)
chain: MLEARFQQAALLKKLLDAIKELVTDANFDCNDNGISLQAMDSSHVALVSMLIKSDGFEPYRCDRNIALGINLNALSKVLRCAQNEDLVTLKAEDTPEVLNLVFESEKNDRISDYDVKLMDIDQEHLGIPDIEYDATITMPAAEFQRITRDLLTLSDSVTINASKEGVRFSCKGDIGNGSTTLKQHTDLSDQDQSIEISLTQAVTLTFSLKYLAQFTKATPLATRVTLSMSNDVPLLVEYKMESGFLRFYLAPKIGEEDEE
notes: Two hybrid construct; the Gal4 fusion is not described for this protein; also called S. pombe PCNA; pcn1 product

Assays:
[1] = target: T1, human PCNA (proliferating cell nuclear antigen) (human, UniProt P12004 1-261); assay: peptide on streptavidin agarose beads, precipitation from HeLa extract, PC10 immunoblot
T1 construct: also called recombinant human PCNA
Protocol: (§1) These peptides were linked via residues SGSG (SEQ ID NO:3) at the amino acid terminus to biotin. 2.7 µg of each peptide was incubated with 10 µl streptavidin agarose beads (Sigma) in phosphate buffered saline (PBS) for 1 hour at room temperature (r.t.) then beads were washed extensively in PBS and recovered each time by centrifugation at 11,600 g. HeLa cell lysate was added to the washed beads to a final protein concentration of 1 mg/ml and incubated with the beads on ice for 1 hour. Beads were extensively washed in PBS with 220 mM NaCl, then bound proteins removed by boiling for 8 minutes in SDS loading buffer with 0.2 M DTT. Proteins were separated on 10% SDS-PAGE then electrophoretically transferred to nitrocellulose. Blots were blocked then incubated for 1 hour r.t. with PC 10 hybridoma supernatant (Waseem & Lane, 1990) diluted 1:5 in DMEM with 10% FCS. After washing, secondary HRP-conjugated anti-mouse IgG serum at 1:1000 in 2% non-fat milk-PBS-0.2% Tween was added for 1 hour at r.t. Bound antibody was visualised using the ECL system according to the manufacturer's instructions (Amersham plc.)
The region of human Fen1 recognised by PCNA in the precipitation assay contains a motif highly conserved in the Fen1 family. We examined whether human PCNA could bind to his motif in the yeast homologues of Fen1, *S. pombe* rad2 and *S. pombe* RAD27/YKL510. […]

[2] = target: T1, human PCNA (proliferating cell nuclear …); assay: precipitation assay
Protocol: as §1, with “Twenty amino acid peptides with 15 amino acid overlaps were synthesized (Chiron Mimotopes, Australia) across the 89 amino acids from the C-terminal region of Fen1 identified in the two hybrid screen as the PCNA binding site on Fen1. These” for “These”
To map precisely the residues of Fen1 to which PCNA binds, a series of biotinylated 20 amino acids peptides (with 15 amino acid overlaps) were synthesized representing the region of Fen1 found to interact with PCNA in the two hybrid screen (FIG. 1). Fen1 peptides (bound to streptavidin agarose beads) were incubated with human HeLa cell extracts, then beads were precipitated and bound protein analysed on immunoblots probed with monoclonal anti-PCNA antibody PC10 (Waseen & Lane, 1990).

[3] = target: T2, human Fen1 fused to the transcriptional activation domain of Gal4 (Gal4ACT) (human, UniProt P39748 1-380); assay: yeast two hybrid
T2 construct: range 1-380; Yeast two hybrid prey; also called DNase IV; rad2hs
From the text: The 89 Amino Acids From the C-terminal Region of Fen1 Bind PCNA in an Interaction Trap Proteins that interact physically with human PCNA were screened using a two hybrid interaction trap system that detects protein-protein interactions by reconstitution of a functional Gal4 transcriptional activator in the yeast *Saccharomyces cerevisiae*. A plasmid expressing human PCNA in fusion with the DNA binding domain of Gal4 (Gal4AS) was used to screen plasmids expressing fusion constructs of molecules encoded by fragments from a human cDNA library with the transcriptional activation domain of Gal4 (Gal4ACT). […] The minimal Fen1 fragment isolated in our screen (FIG. 1) encoded the 89 amino acids from the C-terminal region of the protein (full length 380 aa, (Murray et al., 1994)), therefore localising the PCNA binding site to these residues.

T1 sequence (P12004 whole entry): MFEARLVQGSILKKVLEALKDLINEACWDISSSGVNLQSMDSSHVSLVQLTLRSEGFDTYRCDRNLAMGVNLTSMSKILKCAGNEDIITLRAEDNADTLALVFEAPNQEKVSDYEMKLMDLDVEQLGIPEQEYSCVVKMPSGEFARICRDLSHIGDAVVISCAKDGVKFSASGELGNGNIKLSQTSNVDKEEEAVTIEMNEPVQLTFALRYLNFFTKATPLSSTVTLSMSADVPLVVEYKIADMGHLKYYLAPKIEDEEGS
T2 sequence (P39748 whole entry, the tested form may be a part): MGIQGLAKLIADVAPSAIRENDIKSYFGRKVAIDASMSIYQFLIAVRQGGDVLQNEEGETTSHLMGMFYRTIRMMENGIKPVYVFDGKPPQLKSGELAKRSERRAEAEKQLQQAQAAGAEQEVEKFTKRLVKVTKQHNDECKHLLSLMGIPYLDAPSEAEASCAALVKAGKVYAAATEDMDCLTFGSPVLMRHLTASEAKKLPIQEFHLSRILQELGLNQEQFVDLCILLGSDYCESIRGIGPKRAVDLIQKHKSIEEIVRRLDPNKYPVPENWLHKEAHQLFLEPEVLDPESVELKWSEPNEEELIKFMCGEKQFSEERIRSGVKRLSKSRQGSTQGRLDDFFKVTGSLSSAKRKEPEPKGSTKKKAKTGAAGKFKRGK

Row | Binder | binding result [2] | other results
1 | GLKSGIQGRLDGFFQVVPKT (not fully specified (N-terminus); also: biotinylated, position not given here, also called RAD27 peptide) [peptide 93, 20 amino acid peptide of the conserved box of S. cerevisiae RAD27/YKL510] |  | binding result [1]: binds
2 | Biotin-SGSGKRLSKSRQGSTQGRLDDFFK (also called FenPBP) [Fen1 peptide 84 (Fen1PBP, Fen1-PCNA binding peptide)] | binds | 
3 | Biotin-SGSGSRQGSTQGRLDDFFKVTGSL [Fen1 peptide 85] | binds | 
4 | Biotin-SGSGTQGRLDDFFKVTGSLSSAKR [Fen1 peptide 86] | binds | 
5 | ASKTIPQGRLDSFFKPVPSS (not fully specified (N-terminus); also: biotinylated, position not given here, also called rad2 peptide) [peptide 92, 20 amino acid peptide of the conserved box of S. pombe rad2] | binds | 
6 | B1 |  | binding result [3]: binds
7 | B2 |  | binding result [3]: binds
